Drawing on paper PMC4287557, this text covers increase of the melting temperature (Tm) of the JRFL SOSIP-Fab complex over the trimer alone, DSF for one molecule.

For the assay, the target named is JRFL SOSIP trimer (HIV-1 subtype B, truncated at residue 663), negatively selected (HIV-1 subtype B strain JRFL).

B1: PGV04 Fab (Fab, V domains shown)
VH: QVQLVQSGSGVKKPGASVRVSCWTSEDIFERTELIHWVRQAPGQGLEWIGWVKTVTGAVNFGSPDFRQRVSLTRDRDLFTAHMDIRGLTQGDTATYFCARQKFYTGGQGWYFDLWGRGTLIVVSS
VL: EIVLTQSPGTLSLSPGETASLSCTAASYGHMTWYQKKPGQPPKLLIFATSKRASGIPDRFSGSQFGKQYTLTITRMEPEDFARYYCQQLEFFGQGTRLEIR
Regarding B1, the increase of the melting temperature (Tm) of the JRFL SOSIP-Fab complex over the trimer alone, DSF was found to be 3.6 °C.
